According to patent publication US20140378382A1 (WISCONSIN ALUMNI RESEARCH FOUNDATION, published 2014):
Non-standard residues stand in square brackets, D forms with d. Primed or numbered codes have the meaning given here. No end group written: not given here. APC = aminopyrrolidine carboxylic acid (2-aminopyrrolidine-4-carboxylic acid); ACPC(3) = 2-aminocyclopentane carboxylic acid (cyclic beta residue); ACPC″ = 2-aminocyclopentane carboxylic acid (X); ACPC = 2-aminocyclopentane carboxylic acid; β3hW = N[C@H](CC(=O)O)Cc1c[nH]c2ccccc12; hArg = N=C(N)NCCCC[C@H](N)C(=O)O; β3hE = N[C@@H](CCC(=O)O)CC(=O)O; β3hF = N[C@H](CC(=O)O)Cc1ccccc1; β3hL = CC(C)C[C@H](N)CC(=O)O; β3hK = NCCCC[C@H](N)CC(=O)O; β3hM = CSCC[C@H](N)CC(=O)O; β3hD = NC(CC(=O)O)CC(=O)O; β3hS = N[C@@H](CO)CC(=O)O; Aib = CC(C)(N)C(=O)O

T1: rat parathyroid hormone receptor 1, wild-type (rPTHR-1) (rat, UniProt P25961 27-591)
T1 sequence (looked up): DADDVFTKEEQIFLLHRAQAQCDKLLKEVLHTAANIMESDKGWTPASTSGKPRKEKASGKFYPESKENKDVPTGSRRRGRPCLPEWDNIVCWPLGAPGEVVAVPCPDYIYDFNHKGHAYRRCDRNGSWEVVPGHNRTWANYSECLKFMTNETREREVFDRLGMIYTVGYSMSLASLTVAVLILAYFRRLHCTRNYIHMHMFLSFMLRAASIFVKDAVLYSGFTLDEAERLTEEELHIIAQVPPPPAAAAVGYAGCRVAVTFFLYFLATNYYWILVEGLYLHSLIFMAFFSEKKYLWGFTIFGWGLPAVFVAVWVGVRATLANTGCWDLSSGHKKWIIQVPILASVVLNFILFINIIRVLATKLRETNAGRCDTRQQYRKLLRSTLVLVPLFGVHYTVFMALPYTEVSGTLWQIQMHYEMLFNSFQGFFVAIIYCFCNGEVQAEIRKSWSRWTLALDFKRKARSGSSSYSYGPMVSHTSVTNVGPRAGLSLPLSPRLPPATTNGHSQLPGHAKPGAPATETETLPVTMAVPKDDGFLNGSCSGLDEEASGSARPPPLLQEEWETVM

T2: delNT PTHR1 (human, UniProt Q03431 27-593)
T2 sequence (looked up): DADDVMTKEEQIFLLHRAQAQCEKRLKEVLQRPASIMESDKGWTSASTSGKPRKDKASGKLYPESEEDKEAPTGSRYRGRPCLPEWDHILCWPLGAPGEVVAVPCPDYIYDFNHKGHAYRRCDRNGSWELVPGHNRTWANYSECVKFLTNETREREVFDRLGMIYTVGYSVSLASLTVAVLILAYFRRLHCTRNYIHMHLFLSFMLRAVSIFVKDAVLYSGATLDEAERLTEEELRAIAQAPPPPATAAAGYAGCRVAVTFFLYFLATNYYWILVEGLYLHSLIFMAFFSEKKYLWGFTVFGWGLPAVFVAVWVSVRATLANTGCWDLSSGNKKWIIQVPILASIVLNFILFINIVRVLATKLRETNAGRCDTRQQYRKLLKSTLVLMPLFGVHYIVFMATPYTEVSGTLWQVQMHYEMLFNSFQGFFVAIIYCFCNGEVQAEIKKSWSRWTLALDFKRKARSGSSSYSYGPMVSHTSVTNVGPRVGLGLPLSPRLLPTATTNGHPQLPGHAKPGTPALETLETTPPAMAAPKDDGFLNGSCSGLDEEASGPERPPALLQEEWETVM

T3: PTHR-1 (species and cells not stated for the assay) (Homo sapiens (Human), UniProt Q03431 27-593)
T3 sequence: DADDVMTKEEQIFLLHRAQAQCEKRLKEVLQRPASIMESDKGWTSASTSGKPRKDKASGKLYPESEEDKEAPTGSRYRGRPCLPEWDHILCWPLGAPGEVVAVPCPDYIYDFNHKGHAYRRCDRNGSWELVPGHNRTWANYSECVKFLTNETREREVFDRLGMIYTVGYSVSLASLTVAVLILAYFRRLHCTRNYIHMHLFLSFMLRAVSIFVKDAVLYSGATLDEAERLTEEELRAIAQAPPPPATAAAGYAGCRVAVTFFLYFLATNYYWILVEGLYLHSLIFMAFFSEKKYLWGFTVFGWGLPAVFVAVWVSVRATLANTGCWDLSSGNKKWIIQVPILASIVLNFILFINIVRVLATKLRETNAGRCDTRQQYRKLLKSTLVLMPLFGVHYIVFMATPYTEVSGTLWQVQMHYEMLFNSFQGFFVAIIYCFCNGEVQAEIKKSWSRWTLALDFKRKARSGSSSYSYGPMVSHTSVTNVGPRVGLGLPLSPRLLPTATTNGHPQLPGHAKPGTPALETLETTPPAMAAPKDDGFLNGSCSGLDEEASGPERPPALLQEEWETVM

B1: D3 (peptide)
peptide: SVSEIQLMHNLGKHLNSMERVEWLRKKLQDVHNF-NH2
modifications: also: three β3 residues, αααβ pattern, positions not given here
B2: C5 (peptide)
peptide: SVSEIQLMHNLGKHLNSMERVEWLRKKLQDVHNF-NH2
modifications: also: five β3 residues, αααβ pattern, positions not given here
B3: A5 (peptide)
peptide: SVSEIQLMHNLGKHLNSMERVEWLRKKLQDVHNF-NH2
modifications: not fully specified (residue 19)
B4: D5 (peptide)
peptide: SVSEIQLMHNLGKHLNSMERVEWLRKKLQDVHNF-NH2
modifications: also: five β3 residues, αααβ pattern, positions not given here
B5: C3 (peptide)
peptide: SVSEIQLMHNLGKHLNSMERVEWLRKKLQDVHNF-NH2
modifications: also: three β3 residues, αααβ pattern, positions not given here
B6: β3Met(8) PTH(1-34) (peptide)
peptide: SVSEIQL[β3hM]HNLGKHLNSMERVEWLRKKLQDVHNF-NH2
B7: β3Ser(3) PTH(1-34) (peptide)
peptide: SV[β3hS]EIQLMHNLGKHLNSMERVEWLRKKLQDVHNF-NH2
B8: β3Leu(7) PTH(1-34) (peptide)
peptide: SVSEIQ[β3hL]MHNLGKHLNSMERVEWLRKKLQDVHNF-NH2
B9: ACPC(4) PTH(1-34) (peptide)
peptide: SVS[ACPC]IQLMHNLGKHLNSMERVEWLRKKLQDVHNF-NH2
B10: β3Glu(4) PTH(1-34) (peptide)
peptide: SVS[β3hE]IQLMHNLGKHLNSMERVEWLRKKLQDVHNF-NH2
B11: APC(9) PTH(1-34) (peptide)
peptide: SVSEIQLMZNLGKHLNSMERVEWLRKKLQDVHNF
modifications: APC (Z) at 9; C-terminal amide
B12: cycD6 (peptide)
peptide: SVSEIQLMHNLGK[ACPC″]LNS[ACPC″]ERV[β3hE]WLR[APC]KLQ[β3hD]VHN[ACPC″]-NH2
modifications: also: β3 residues (bold, underlined) not marked in the text
B13: CycD6_ACPC(1,7) (peptide)
peptide: [ACPC]VSEIQ[ACPC]MHNLGK[ACPC]LNS[ACPC]ERVEWLR[APC]KLQDVHN[ACPC]-NH2
modifications: not fully specified; printed as XVSEIQXMHNLGKXLNSXERVEWLRZKLQDVHNX-NH2; also: further β3 residues, positions not shown (marking lost)
B14: FcycD6 (peptide)
peptide: SVSEIQLMHNLGK[ACPC]LNS[ACPC]ERV[APC]WLR[APC]KLQ[ACPC]VHN[ACPC]-NH2
modifications: not fully specified; printed as SVSEIQLMHNLGKXLNSXERVZWLRZKLQXVHNX-NH2
B15: CycD6_ACPC(1,5,7) (peptide)
peptide: [ACPC]VSE[ACPC]Q[ACPC]MHNLGK[ACPC]LNS[ACPC]ERVEWLR[APC]KLQDVHN[ACPC]-NH2
modifications: not fully specified; printed as XVSEXQXMHNLGKXLNSXERVEWLRZKLQDVHNX-NH2; also: further β3 residues, positions not shown (marking lost)
B16: ACPC(1,7) (peptide)
peptide: [ACPC]VSEIQ[ACPC]MHNLGKHLNSMERVEWLRKKLQDVHNF-NH2
B17: D6_ACPC(1,7) (peptide)
peptide: [ACPC]VSEIQ[ACPC]MHNLGKWLNSMERVEWLRKKLQDVHNF-NH2
modifications: not fully specified; printed as XVSEIQXMHNLGKWLNSMERVEWLRKKLQDVHNF-NH2; also: D6 β3 residues, positions not shown (marking lost)
B18: D6_ACPC(1,5,7) (peptide)
peptide: [ACPC]VSE[ACPC]Q[ACPC]MHNLGKWLNSMERVEWLRKKLQDVHNF-NH2
modifications: not fully specified; printed as XVSEXQXMHNLGKWLNSMERVEWLRKKLQDVHNF-NH2; also: D6 β3 residues, positions not shown (marking lost)
B19: FcycD6_ACPC(1,7) (peptide)
peptide: [ACPC″]VSEIQ[ACPC″]MHNLGK[ACPC″]LNS[ACPC″]ERV[APC]WLR[APC]KLQ[ACPC″]VHN[ACPC″]-NH2
B20: M-X1,5,7-D6 (peptide)
peptide: [ACPC″]V[Aib]E[ACPC″]Q[ACPC″]MHQ[hArg]AK[β3hW]LNS[β3hM]RRV[β3hE]WLR[β3hK]KLQ[β3hD]VHN[β3hF]-NH2
modifications: also: β3 residues (bold, underlined) not marked in the text
B21: M-D6_ACPC(1,7) (peptide)
peptide: [ACPC″]V[Aib]EIQ[ACPC″]MHQ[hArg]AK[β3hW]LNS[β3hM]RRV[β3hE]WLR[β3hK]KLQ[β3hD]VHN[β3hF]-NH2
modifications: also: β3 residues (bold, underlined) not marked in the text
B22: M-ACPC(1,5,7) (peptide)
peptide: [ACPC″]V[Aib]E[ACPC″]Q[ACPC″]MHQ[hArg]AKWLNSMRRVEWLRKKLQDVHNF-NH2
B23: M-FcycD6_ACPC(1,7) (peptide)
peptide: [ACPC″]V[Aib]EIQ[ACPC″]MHQ[hArg]AK[ACPC″]LNS[ACPC″]RRV[APC]WLR[APC]KLQ[ACPC″]VHN[ACPC″]-NH2
B24: M-FcycD6 (peptide)
peptide: AVAEIQ[ACPC″]MHQ[hArg]AK[ACPC″]LNS[ACPC″]RRV[APC]WLR[APC]KLQ[ACPC″]VHN[ACPC″]-NH2
B25: M-ACPC(1,7) (peptide)
peptide: [ACPC″]V[Aib]EIQ[ACPC″]MHQ[hArg]AKWLNSMRRVEWLRKKLQDVHNF-NH2
B26: M-D6 (peptide)
peptide: AVAEIQ[ACPC″]MHQ[hArg]AKWLNSMRRVEWLRKKLQDVHNF-NH2
modifications: not fully specified (residues 14, 18, 22, 26, 30, 34)
B27: M-X1,5,7-FcycD6 (peptide)
peptide: [ACPC″]V[Aib]E[ACPC″]Q[ACPC″]MHQ[hArg]AK[ACPC″]LNS[ACPC″]RRV[APC]WLR[APC]KLQ[ACPC″]VHN[ACPC″]-NH2
B28: M-X1,5,7-CycD6 (peptide)
peptide: H[ACPC(3)]V[Aib]E[ACPC(3)]Q[ACPC(3)]MHQ[hArg]AK[ACPC(3)]LNS[ACPC(3)]RRV[β3hE]WLR[APC]KLQ[β3hD]VHN[ACPC(3)]-NH2
modifications: not fully specified

These binders were tested against T1, rat parathyroid hormone receptor 1, … (assay: cell-based or functional assay).

Compared with B1, B2 is lower in “cAMP Max” value: 65 cps × 10-3 for the first, 48 cps × 10-3 for the second.

First: B3
Second: B4
The “cAMP Max” value of the first is higher: 54 cps × 10-3 for the first, 43 cps × 10-3 for the second.

In the case of B5, the “cAMP Max” value is reported as 68 cps × 10-3.

What follows are binders tested against T2, delNT PTHR1 (assay: cell-based or functional assay).

Compared with B6, B7 is 17-fold higher in “cAMP EC50” value: 20000 nM for the first, 340000 nM for the second.

Going from B8 to B9, the “cAMP EC50” value falls from 67000 nM to 32000 nM (2.1-fold).

First: B10
Second: B11
The “cAMP EC50” value of the first is 2.8-fold higher: 15000 nM for the first, 5400 nM for the second.

First: B9
Second: B11
The “Fold PTH” value of the first is higher: 510 fold for the first, 87 fold for the second.

The binders below were run against T3, PTHR-1 (species and cells not stated …) (assay: cell-based or functional assay).

Going from B12 to B13, the “Fold PTH” value rises from 1.3 fold to 7.3 fold.

Compared with B14, B15 is higher in “Fold PTH” value: 3.2 fold for the first, 266 fold for the second.

First: B16
Second: B17
The “Fold PTH” value of the first is lower: 1.7 fold for the first, 22.6 fold for the second.

First: B18
Second: B19
The “Fold PTH” value of the first is higher: 2040 fold for the first, 8.7 fold for the second.

Going from B12 to B13, the “cAMP EC50” value rises from 0.1 nM to 0.59 nM (5.9-fold).

First: B14
Second: B15
The “cAMP EC50” value of the first is 83-fold lower: 0.26 nM for the first, 21.7 nM for the second.

First: B16
Second: B17
The “cAMP EC50” value of the first is 13-fold lower: 0.14 nM for the first, 1.84 nM for the second.

Compared with B18, B19 is 240-fold lower in “cAMP EC50” value: 167 nM for the first, 0.71 nM for the second.

Target: T3, PTHR-1 (species and cells not stated …)
Experiment: cell-based or functional assay
Remark: another data set of the same source

Going from B20 to B21, the “Fold PTH” value rises from 9.7 fold to 10.2 fold.

First: B22
Second: B23
The “Fold PTH” value of the first is lower: 4.9 fold for the first, 21.8 fold for the second.

B24 and B25 are the same in “Fold PTH” value: 6.3 fold for the first, 6.3 fold for the second.

Compared with B26, B27 is higher in “Fold PTH” value: 5.4 fold for the first, 9.5 fold for the second.

With B28 the “Fold PTH” value was 3.8 fold.

B20 and B21 are within 1.5-fold of each other in “cAMP EC50” value: 0.79 nM for the first, 0.83 nM for the second.

Compared with B22, B23 is 4.4-fold higher in “cAMP EC50” value: 0.4 nM for the first, 1.77 nM for the second.

B24 and B25 are within 1.5-fold of each other in “cAMP EC50” value: 0.51 nM for the first, 0.52 nM for the second.

Going from B26 to B27, the “cAMP EC50” value rises from 0.44 nM to 0.78 nM (1.8-fold).

With B28 the “cAMP EC50” value was 0.31 nM.
